Like-named read-outs stand apart in the source and are kept apart here. One block for each molecule: values may come before it.
Legend:
Test in all cases: split reporter
[1] = biological target: Rsr1 GTPase, split-YFP fusion for BiFC (YFP^N-Rsr1 / YFP^C-Rsr1) (S. cerevisiae) (UniProt P13856)
[2] = biological target: Rsr1 GTPase, split-YFP fusion for BiFC (YFP^N-Rsr1 / YFP^C-Rsr1) (S. cerevisiae) (UniProt P13856); remark: listed apart in the source
split reporter = biological target: the molecule itself

percent of unbudded cells with BiFC signal [1]: < 2% | percent of unbudded cells with BiFC signal [2]: 1.7%
Molecule: Rsr1-7^K260–264S, split-YFP fusion for BiFC (from UniProt P13856 1-272) (natural protein)

B1: Rsr1^K16N, split-YFP fusion for BiFC (natural protein, S. cerevisiae, UniProt P13856 1-272, looked up)
chain: MRDYKLVVLGAGGVGNSCLTVQFVQGVYLDTYDPTIEDSYRKTIEIDNKVFDLEILDTAGIAQFTAMRELYIKSGMGFLLVYSVTDRQSLEELMELREQVLRIKDSDRVPMVLIGNKADLINERVISVEEGIEVSSKWGRVPFYETSALLRSNVDEVFVDLVRQIIRNEMESVAVKDARNQSQQFSKIESPSTRLPSSAKQDTKQSNNKQSSKGLYNKSSQGQAKVKQSTPVNEKHKPSHAVPKSGSSNRTGISATSQQKKKKKNASTCTIL
percent of unbudded cells with BiFC signal (split reporter): 84%

Source: paper PMC2929994 (Molecular Biology of the Cell, 2010)
